Test results published in the nanobody polyreactivity screen of Harvey et al. (2022).

experiment: yeast display, Sf9 membrane polyspecificity reagent, FACS + sequencing; frameworks hold sequencing errors
How it was run: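 Galactose induction of a Saccharomyces cerevisiae BJ5465 synthetic nanobody display library ran 36–48 hours. The cells were then stained for 1 hour at 4 °C with 10% biotinylated, detergent-solubilized Sf9 membrane reagent, pulled down on streptavidin microbeads and FACS-sorted into low and high (top ~1%) gates on expression and reagent-binding fluorescence. Labels for polyreactivity follow the gate of origin.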

Row | Sequence | polyreactivity (PSR sort gate)
1 | QVQLVESGGGLVQAGGSLRLSCAASGSIFDSKAMGWFRQGPGKERELVAAINRSDASTYYADSVKGRFTISRDNAKNTVYLQMNSLKPEDTAVYYCAVEVYVYNVDIYDYWGQGTQVTVSS | low polyreactivity
2 | QVQLVESGGGLVQAGGSLRLSCAASGSIFDSNTMGWYRQAPGKERELVAAITGTGTSTYYADSVKGRFTISRDNAKNTVYLQMNSLKPEDTAVYYCAADLEYKTWWYDYWGQGTQVTVSS | low polyreactivity
3 | QVQLVESGGGLVQAGGSLRLSCAASGSIFDSYAMGWYRQAPGKERELVAGIDSTGDTSYADSVKGRFTISRDNAKNTVYLQMNSLKPEDTAVYYCAKEYPGDSVQASDEPWGMGYWGQGTQVTVSS | low polyreactivity
4 | QVQLVESGGGLVQAGGSLRLSCAASGSIFDSYAMGWYRQAPGKERELVATINTSGGSTYYADSVKGRFTIHDNAKNTVYLQKNSLKPEDTAVYYCNAGRWVYWQNNFGDYGYWGQGTQVTVSS | low polyreactivity
5 | QVQLVESGGGLVQAGGSLRLSCAASGSIFDSYAMGWYRQAPGKERELVATINTSGGSTYYADSVKGRFTIHDNAKNTVYLQMNSLKPEDTAVYYCAVVVHYSTIGGGYRPRMYYWGQGTQVTVSS | low polyreactivity
6 | QVQLVESGGGLVQAGGSLRLSCAASGSIFDSYAMGWYRQAPGKERELVAVISESGGTTYYADSVKGRFTISRDNAKNTVYLQMNSLKPEDTAVYYCAAVWYYQFGVWGYYWGQGTQVTVSS | low polyreactivity
7 | QVQLVESGGGLVQAGGSLRLSCAASGSIFDSYVMGWYRQAPGKERELVAAITYSGGSTYADSVKGRFTISRDNAKNTVYLQMNSLKPEDTAVYYCAADLSGGSRYDYWGQGTQVTVSS | low polyreactivity
8 | QVQLVESGGGLVQAGGSLRLSCAASGSIFDTNAMGWYRQAPGKERELVAAIRWSGGRTYYADSVKGRFTISRDNAKITVYLQMNSLKPEDTAVYYCNKVPRTPIPYKYGYWGQGTQVTVSS | high polyreactivity
9 | QVQLVESGGGLVQAGGSLRLSCAASGSIFDTYAMGWYRQAPGKERELVAAITWGGGRTYYADSVKGRFTISRDNAKNTVYLQMNSLKPEDTAVYYCAARWRLRGGNQRYGYWGQGTQVTVSS | high polyreactivity
10 | QVQLVESGGGLVQAGGSLRLSCAASGSIFDTYAMGWYRQAPGQERELVAAITSGGSTNYADSVKGRFTISRDNAKNTVYLQMNSLKPEETAVYYCAADAEDRPSWPGNSEYEYWGQGTQVTVSS | low polyreactivity
11 | QVQLVESGGGLVQAGGSLRLSCAASGSIFDTYSMGWYIQAPGKERELVAAISSGGRTYYADSVKGRFTISRDNAKNTVYLQMNSLKPEDTAVYYCNARYHARYGGDYWGQGTQVTVSS | high polyreactivity
12 | QVQLVESGGGLVQAGGSLRLSCAASGSIFDVNAMGWYRQAPGIERDLVAAISQRGTRTYYADSVKGRFTISRDNAKNTVYLQMNSLKPEDTAVYYCAARVPSVGNQSGYDYWGQGTQVTVSS | high polyreactivity
13 | QVQLVESGGGLVQAGGSLRLSCAASGSIFDVNAMGWYRQAPGKERELVAAITSSGGSTYYADSVKGRFTISRDNAKNTVYLQMNSLKPVDTAVYYCAAYSLYTMYWGQGTQVTVSS | low polyreactivity
14 | QVQLVESGGGLVQAGGSLRLSCAASGSIFDVNAMGWYRQAPGKESELVAAISDSGGSTYYADSVKGRFTISRDNAKTTVYLQMTSLKQEDTAVYYCNADWSWYNYYDFDYWGQGTQVTVSS | low polyreactivity
15 | QVQLVESGGGLVQAGGSLRLSCAASGSIFDVNAMGWYRQAPWKERELVAAISDSGGSTYYADSVKGRFTISRDNANNTVYLQMNSLKPEDTAVYYCNADWSWYNYYDFDYWGQGTQVTVSS | low polyreactivity
16 | QVQLVESGGGLVQAGGSLRLSCAASGSIFDVYAMGWYRQAPGKERELVATISNSAGSTYYADSVKGRFTISRDNAKNTVYLQMNSLKPEDTAVYYCAAVVVYFDEYDYWGQGTQVTVSS | low polyreactivity

Row | Sequence | polyreactivity (PSR sort gate)
17 | QVQLVESGGGLVQAGGSLRLSCAASGSIFDVYGMGWYRQAPGKEREFVADITSRGTRTYYADSVKGRFTISRDNAKNTVYLQMNSLKPEDTAVYYCNTLVGVDFWLVDYWGQGTQVTLSS | low polyreactivity
18 | QVQLVESGGGLVQAGGSLRLSCAASGSIFDVYGMGWYRQAPGKERELVARITSAGNTDYADSVKGRFTISRDNAKNTVYLQRNSLKPEDTAVYYCARDYVWFYGDTDFYYYLFDYWGQGTQVTVSS | low polyreactivity
19 | QVQLVESGGGLVQAGGSLRLSCAASGSIFDVYTMGWYRQAPGKERELVAAINTGGGSTYYADSVKGRFTISRDNAKNTVYLQMNSLKPEDTAVYFCAASVYHYGPLYYWGQGTQVTVSS | low polyreactivity
20 | QVQLVESGGGLVQAGGSLRLSCAASGSIFDWYAMGWYRQAPGKERELGAAITNSGGRTYYADSVKGRFTISRDTAKNTVYLQMNSLKPEDTAVYYCNASVFRLRKMYYWGQGTPVTVSS | high polyreactivity
21 | QVQLVESGGGLVQAGGSLRLSCAASGSIFDYKAMGWYRQAPGKERELVAAIDSSDTGTYYADSVKGRFTISRDNAKNTVYLQMNSLKPEDTAVYYCAAEYGWWEGSTTYLRYDYWGQGTQVTVSS | low polyreactivity
22 | QVQLVESGGGLVQAGGSLRLSCAASGSIFDYNAMGWYRQAPGKVRELVAAITGSGGSTYYADSVKGRFTISRDNAKNTVYLQMNSLTAEDTAVYYCAAPVDYRRYEYEYWGQGTQVTVSS | low polyreactivity
23 | QVQLVESGGGLVQAGGSLRLSCAASGSIFDYNGMGWYRQAPGKERELVATITLSTARTYYADSVKGRFTISRDNAKNTVYLQMNSLKPEDTAVYYCAATRLTPYIYGGKYNYWGQGTQVTVSS | high polyreactivity
24 | QVQLVESGGGLVQAGGSLRLSCAASGSIFDYNTMGWYRQAPGKEREFVAAISSSGGGTSYADSVKGRFTISRDNAKNTVYLQMNSLKPEDTAVYYCAALIKLTPYQRQYWKYRAYYYWGQGSQVTVSS | high polyreactivity
25 | QVQLVESGGGLVQAGGSLRLSCAASGSIFDYYAMGWDRQAPGKERELVAAISWSGGSTYYADSVKGRFTISRDNAKNTVYLHMNSLNPEDTAVYYCAADEYDYYHSRWYEYWGQGTQVTVSS | high polyreactivity
26 | QVQLVESGGGLVQAGGSLRLSCAASGSIFDYYAMGWYRQAPGKERELVAAIDNPDSTNYADSVKGRFTISRDNAKNTVYFQMNSLKPEDTAVYYCNADYWRYISSYDYWGQGTQVTVSS | low polyreactivity
27 | QVQLVESGGGLVQAGGSLRLSCAASGSIFDYYAMGWYRQAPGKERELVATITSGVSTYYADSVKGRFTISRDNAKNTVYLQMNSLKPEDTAVYYCARDYAKSQDLYKYDYWGQGTQVTVSS | low polyreactivity
28 | QVQLVESGGGLVQAGGSLRLSCAASGSIFDYYTMGWYRQAPGKERELVASITQSGGSTYYADSVKGRFTISRDNAKNTVYLQMNSLKPEDTAVYYCAADFSIVKMDYWGQGTQVTVSS | low polyreactivity
29 | QVQLVESGGGLVQAGGSLRLSCAASGSIFEANVMGWYRQAPGKERELVASISSDGTSTYYADSVKGRFTISRDNAKNTVYLQMNSLKPEDTAVYYCNADAGAGWYPDSKYDYDYWGQGTQVTVSS | low polyreactivity
30 | QVQLVESGGGLVQAGGSLRLSCAASGSIFEFNTMGWYRQAPGKERELVAAISSSGGRTYYADSVKGRFTISRDNAKNTVYLQMNSLKPEDTAVYYCNAVSYYGARYDYWGQGTQVTVSS | high polyreactivity
31 | QVQLVESGGGLVQAGGSLRLSCAASGSIFEGNGMGWYRQAPGKERELVAAITFRSGSTYYADSVKGRFTISRDNAKNTVYLLMNSLKPADTAVYYCAAHESYQVSAYDYWGQGSQVTVSS | low polyreactivity
